Data published in US20130035289A1, “PHARMACEUTICAL COMPOSITION FOR TREATMENT OF THROMBOSIS-RELATED DISEASES COMPRISING A FRAGMENT OF PROLACTIN (PRL)-GROWTH HORMONE (GH)-PLACENTAL LACTOGEN (PL)-FAMILY PROTEIN” (UNIVERSITE DE LIEGE, priority 2010, published 2013).

Molecular target: T1, PAI-1 (Homo sapiens, UniProt P05121)
T1 construct: gift of Pr; P. Declerck
Experiment: Inhibition of PAI-1 anti-proteolytic activity, uPA/plasminogen chromogenic (colorimetric) assay
Type: biochemical
Conditions: uPA, bovine plasminogen, PAI-1, absorbance 405 nm
Description: The main physiological function of PAI-1 is to inhibit uPA and tPA proteolytic activity. […] A chromogenic substrate for plasmin (Spectrozyme PL: 0.5 mM. American Diagnostica INC) in PBS was added to the mixture in 96-well microtitration plates and kept at room temperature. The release of free p-nitro-aniline from the chromogenic substrate was measured spectrophotometrically. The activity of plasmin was determined as the absorbance at 405 nm.

T1 sequence (P05121 24-402): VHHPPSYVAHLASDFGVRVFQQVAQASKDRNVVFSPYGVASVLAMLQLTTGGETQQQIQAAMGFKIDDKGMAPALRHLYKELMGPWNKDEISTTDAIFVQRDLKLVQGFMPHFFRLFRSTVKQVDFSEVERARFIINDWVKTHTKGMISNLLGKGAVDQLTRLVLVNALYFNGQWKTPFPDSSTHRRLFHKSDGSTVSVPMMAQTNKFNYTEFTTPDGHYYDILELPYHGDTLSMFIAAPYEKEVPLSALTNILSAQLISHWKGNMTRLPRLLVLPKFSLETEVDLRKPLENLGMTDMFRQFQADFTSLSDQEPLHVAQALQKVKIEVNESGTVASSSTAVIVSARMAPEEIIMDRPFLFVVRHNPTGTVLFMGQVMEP

inhibition of PAI-1 function to inhibit uPA and tPA proteolytic activity: did not show any inhibition
B1: 23K PRL: the full fragment (full-length) prolactin (protein)
chain: LPICPGGAARCQVTLRDLFDRAVVLSHYIHNLSSEMFSEFDKRYTHGRGFITKAINSCHTSSLATPEDKEQAQQMNQKDFLSLIVSILRSWNEPLYHLVTEVRGMQEAPEAILSKAVEIEEQTKRLLEGMELIVSQVHPETKENEIYPVWSGLPSLQMADEESRLSAYYNLLHCLRRDSHKIDNYLKLLKCRIIHNNNC
